# According to the nanobody polyreactivity screen of Harvey et al. (2022):
# Experiment: yeast display, Sf9 membrane polyspecificity reagent, FACS + sequencing; frameworks hold sequencing errors
# Summary of the method: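 Galactose-induced (36–48 hours) yeast carrying a synthetic nanobody display library were exposed to 10% biotinylated, detergent-solubilized Sf9 membrane reagent at 4 °C for 1 hour. FACS followed streptavidin microbead enrichment, using low and high (top ~1%) gates for expression (anti-HA) and reagent binding (streptavidin). Colony PCR, MiSeq 2 × 250 sequencing and CDR-length filtering followed. Labels for polyreactivity reflect the gate of origin.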
row,Sequence,polyreactivity (PSR sort gate)
1,QVQLVESGGGLVQAGGSLRLSCAASGGIFIANAMGWYRQAPGKERELVAAISSSGGSTYYADSVKGRFTISRDNAKNTVYLQMNSLKPEDTAVYYCAARRSVRRGGDYYWGQGTQVTVSS,high polyreactivity
2,QVQLVESGGGLVQAGGSLRLSCAASGGIFIFYAMGWYRQATGKERELVAASSNVSSTNYADSVKGRFTISRDNAKNTVYLQMNSLKPEDTAVYYCAAYYYYFYHKVIWYELDYWGQGTQVTVSS,low polyreactivity
3,QVQLVESGGGLVQAGGSLRLSCAASGGIFIRYAMGSYRQAPGKERELVAAITQSGAGTNYADSVKGRFTISRDNAKNTVYLQMNSLKPEDTAVYYCAATGLPGYYAYDYWGQGTQVTVSS,low polyreactivity
4,QVQLVESGGGLVQAGGSLRLSCAASGGIFKQYAMGWYRQAPGKERELVAAITWSGGSTYYADSVKGRFTISRDYAKNTVYLQMNSLKPEDTAVYYCAKDYVLFQYVDFQDDDYWGQGTQVTVSS,low polyreactivity
5,QVQLVESGGGLVQAGGSLRLSCAASGGIFLPYAMGWYRQAPGKERELVAGITSVGSTYADSVKGRFTISRDNAKNTVYLQMNSLKPEDTAVYYCNADIYFVEYDYWGQGTQVTVSS,low polyreactivity
6,QVQLVESGGGLVQAGGSLRLSCAASGGIFNYYAMGWYRPAPGKVRELVAAISASGGSTYYADSVKGRFTISRDNAKNTVYLQMNSLIQEDTAVYYCAAGLPYGYGYDYWGQGTQVTVSS,low polyreactivity
7,QVQLVESGGGLVQAGGSLRLSCAASGGIFNYYAMGWYRQAPGKDRELVAAISASGGSTYYADSVKGRFTISRDYAKNTVYLQMNSLKPEDTAVYYCASGLPYGYGYDYWGQGTQVTVSS,low polyreactivity
8,QVQLVESGGGLVQAGGSLRLSCAASGGIFPFNGMGWYRQAPGKERELVAAISSGGRTYYADSVKGRFTISRDNAKNTVYLQMNSLKPEDTAVYYCAARTSRYYYYPYAFYWGQGTQVTVSS,high polyreactivity
9,QVQLVESGGGLVQAGGSLRLSCAASGGIFPGYAMGWYRQAPGKETELVAAISGSGSSTYYADSVKGRFTISRDHAKNTVYVQMNSLKPEDTAVYYCNVVTRVLPTRFDYWGQGTQVTVSS,high polyreactivity
10,QVQLVESGGGLVQAGGSLRLSCAASGGIFPPNVMGWYRPAPGKETELVAANSRSGGSTYYADSVKGRFTISRDNAKNTVYLQMNSLTAEDTAVYYCAAANTQRGFRYDYWGQGTQVTVSS,high polyreactivity
11,QVQLVESGGGLVQAGGSLRLSCAASGGIFPYYAMGWYRQAPGKERELVAGISQNDGRTYYADSVKGRFTISRDNAKNTVYLQMNSLIPDDTAVYYCATEYWYPRYGYWGQGTQVTVSS,low polyreactivity
12,QVQLVESGGGLVQAGGSLRLSCAASGGIFQGYAMGWYRQAPGKERELVAAISRSGGRTYYADSVKGRFTISRDNAKKTVYLQMNSLKPEDTSVYYCAADIRLSKYDYRGQGTQVTVSS,high polyreactivity
13,QVQLVESGGGLVQAGGSLRLSCAASGGIFQWYAMGWYRQAPGKVREFVAAITRRGGSTYYAYSVKGRFTISRDNAKNTVYLQMNSLKPEDTAVYYCAARPWADFDYWGQGTQVTVSS,low polyreactivity
14,QVQLVESGGGLVQAGGSLRLSCAASGGIFRANALGWYRQAPGKERELVAAIRYSGGGTYYADSVKGRFTISRDNAKNTVYLQMNSLKPEDTAVYYCAARYRGRGYVAYDYWGQGTQVTVSS,high polyreactivity
15,QVQLVESGGGLVQAGGSLRLSCAASGGIFRHNAMGWYRQAPGKEREFVAAISRSGGNTYYADSVKGRFTISRDNAKNTVYLQMNSLKPEDTAVYYCNKIEYDSWADHVYWGQGTQVTVSS,low polyreactivity
16,QVQLVESGGGLVQAGGSLRLSCAASGGIFRKYAMGWDRQAPGKERDLVAAITSGGGTYYADSVKGRFTISRDNAKNTVLLQMNSQKPEDTAVYYCAARTLYVARRRPYYYWGQGTLVTVSS,high polyreactivity
17,QVQLVESGGGLVQAGGSLRLSCAASGGIFRVYAMGWYRQAPGKERELVAAISRSGSSTYYAVSVKGRFTISRDNAKNTVYLQMNSLKPEDTAVYYCNAYSQYWLGNNYWGEGTQVTVSS,high polyreactivity
18,QVQLVESGGGLVQAGGSLRLSCAASGGIFRYYAMGWYRQAPGKERELVAAITSSGTSTYYADSVKGRFTISRDNAKNTVYLQMNSLKPEDTAVYYCAATRTKRKFDYWGQGTQVTVSS,high polyreactivity
19,QVQLVESGGGLVQAGGSLRLSCAASGGIFSENALGWYRQAPGKERELVAVITTSGGSTYYADSVKGRFTISRDNAKNTVYLQMNSLKPEDTAVYYCAADVLSWEYDYWGQGTQVTVSS,low polyreactivity
20,QVQLVESGGGLVQAGGSLRLSCAASGGIFSGNDMGWYRHAPGKESEFVAAISWSGGSTYYADSVKGRFTISRDNAKNTVYLQMNSLKPEDTAVYYCAAAHYFLGPQGASFYYWGQGTQVTVSS,low polyreactivity
21,QVQLVESGGGLVQAGGSLRLSCAASGGIFSVYAMGWYRQAPGKERELVAAITTSGGSTYYADSVKGRFTISRDNAKNTVYLQMNSLKPEDTAVYYCAADYPPTFYYWYEEYEYWGQGTQVTVSS,low polyreactivity
22,QVQLVESGGGLVQAGGSLRLSCAASGGIFTYYAMGWYRQAPGKERELVAAITWSGGSTYYADSVKGRFTISRDTAKNTVYLQMNSLKPEDTAVYYCNAVVLHVTTDNSTFTTDDYWGQGTQLTVSS,low polyreactivity
23,QVQLVESGGGLVQAGGSLRLSCAASGGIFVIYAMGWYRQAPGKERELVAAITWGGGTTYYADSVKGRFTISRDNAKNTVYLQMNSLNPEDTAVYYCNADGFVYGWYYYYEGYDYWGQGTQVTVSS,low polyreactivity
24,QVQLVESGGGLVQAGGSLRLSCAASGGIFVPNDMGWYRQAPGKERELVAAIRDGGSTNYADSVKGRFTISRDNAKNTVYLQMNSLKPEDTAVYYCAADYSLALAKYDYWGQGTQVTVSS,low polyreactivity
25,QVQLVESGGGLVQAGGSLRLSCAASGGIFVTYTMGWYRQAPGKERELVAGINSRSGSTYADSVKGRFTISRDNAKNTVYLQMNSLKLEDTAVYYCAADRIDLGRASRYGYWGQGTQVTVSS,low polyreactivity
26,QVQLVESGGGLVQAGGSLRLSCAASGGIFWNYAMGWYRQAPGKERELVAVINTGGRTYYADSVKGRFTISRDNAKYTVYLQMNSLKPEDTAVYYCAAKDFTIHYDYWGQGTQVTVSS,high polyreactivity
27,QVQLVESGGGLVQAGGSLRLSCAASGGIFYDNAMGWYRQARGKEWELVAAINWSGGSTYYADSVKGRFTISRDNAKNTVYLQMNSLKPDDTAVYYCAASRYFYRTYWNFYGMDYSGQGTQVTVSS,high polyreactivity
28,QVQLVESGGGLVQAGGSLRLSCAASGGIFYFNAMGWYRQAPGKERELVASITWSGGNTYYADSVKGRFTISRDNAKNTVYLQMNSLKPEDTAVYDCAADTQEYRPTYDYWGQGTQVTVSS,low polyreactivity
29,QVQLVESGGGLVQAGGSLRLSCAASGGIFYGNVMGWYRQAPGKERQLVADITSVGSTYYADSVKGRFTFSRDNAKYTVYIQMNSLKPEDTAVYYCAAEPDHVAESHSGYDYWGQGTLVTVSS,low polyreactivity
30,QVQLVESGGGLVQAGGSLRLSCAASGGIFYTYAMGWSRQAPGKERELVAAISARGGSTYYADSVKGRFTISRDIAKNTVYLQMNSLKPDDTAVYYCAAETYILLEYDYWGQGTQVTVSS,high polyreactivity
